Data on one molecule can be found in patent US20210214444A1 (TAYU HUAXIA BIOTECH MEDICAL GROUP, published 2021).

For the assay, the target named is hPD-L1 (Fortebio Octet assay of Example 3) (human, UniProt Q9NZQ7 19-238, limits assumed). As to the kind of experiment: BLI, Fortebio Octet; format not stated. In general terms: BLI is a label-free optical method that tracks binding on a fibre tip over time.
Sequence of hPD-L1 (Fortebio Octet assay of Example 3) (Q9NZQ7 19-238 limits assumed): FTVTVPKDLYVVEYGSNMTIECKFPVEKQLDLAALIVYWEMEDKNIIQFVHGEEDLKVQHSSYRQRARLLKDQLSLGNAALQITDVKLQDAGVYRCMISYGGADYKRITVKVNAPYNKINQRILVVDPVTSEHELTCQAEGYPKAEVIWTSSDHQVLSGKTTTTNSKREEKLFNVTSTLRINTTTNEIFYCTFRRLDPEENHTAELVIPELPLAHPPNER

B1: humanized anti-hPD-L1 antibody variant 2 (antibody, V domains shown)
VH: QVQLVQSGAEVKKPGASVKVSCKASGFNIKDTYMYWVRQAPGQGLEWMGRIDPANDNTKYAQKFQGRVTITADTSTSTAYMELSSLRSEDTAVYYCARAKNLLNYFDYWGQGTLVTVSS
VL: DIQMTQSPSSLSASVGDRVTITCRASQEISGYLSWLQQKPGKAPKRLIYATSTLQSGVPSRFSGSRSGTDYTLTISSLQPEDFATYYCLQYAIYPLTFGQGTKLEIKR
notes: Human IgG1; also called Humanized VH 1 + Humanized VL2; anti-PD-L1 IgG1
B1: the koff is 2.72e-05 s⁻¹.

For orientation: koff means a measure of how fast the partners let go of each other. The low end stands for a long-lived complex, the high end for a short-lived complex.
